Data as given in patent US20200368361A1 (Regeneron, published 2020).
Numbering of substitutions follows the chain as printed. In names and notes the source's numbering stands.

B1: H1H21234N (antibody, V domains shown)
VH: QVQLQESGPGLVKPSETLSLTCTVTGGSISRNYWSWIRQPPGKGLEWIGYIYYSGSIDYNPSLKSRVTISVDTSKNQFSLKLSSMTAADTAVYYCARDRWNWKYGMDVWGQGTTVIVSS
VL: EIVLTQSPGTLSLSPGERATLSCRASQTVRNNYLAWYHQKPGQAPRLLIYGASSRATGIPDRFSGSGSGTDFTLTISRLEPEDFTVYYCHQYGNSPWTFGQGTKMEIKR
B2: H1H27729P-N297Q (antibody, V domains shown)
VH: QVQLVESGGGLVKPGGSLRLSCAASGFIFSDYYMSWIRQAPGKGLEWVSYISSSGTTIYGDSVKGRFTMSRDNAKNSLYLQMNSLRAEDTAVYYCARNYALFDYWGQGTLVTVSS
VL: DIQMTQSPSSLSASVGDRVTITCQASQDISKYLNWYQQKPGKAPKLLIYYTSNLETGVPSRFSGSGSGTDFTFTISSLQPEDIATYYCHQSDYLPFTFGPGTKVDIKR
B3: H1H27731P-N297Q (antibody, V domains shown)
VH: QLQLQESGPGLVKPSETLSLTCTVSGGSISRISYYWGWIRQPPGKGLEWIGSIYDSGSTYYNPSLKSRVTISIDTSKNQFSLKLSSVTAADTAVYYCVRYSSSSAFAFDYWGQGTLVTVSS
VL: DIQMTQSPSSVSASVGDRVTITCRASQGISSWLAWYQQKPGKAPKLLIYAASSLQSGVPSRFSGSGSGTDFTLTISSLQPEDFATYYCQQANSFPFTFGPGTKVDIKR
B4: H1H21227N-N297Q (antibody, V domains shown)
VH: QVQLVQSGAEVKKPGASVKVSCKVSGYTLTELSIHWVRQVPGKGLEWMGGFDPEEGETIFAQEFRDRVTLTEDTSPDTAYMELSSLKSEDAAVYYCTTPRYCNNGICYDYWGQGTLVTVSS
VL: DIQMTQSPSSLSASVGDRVTITCRASQSISNYLNWYQQKPGKAPKLLIYTASSLQSGVPSRFSGSGSGTDFTLTISSLQTEDFATYYCQQSYSNFPITFGQGTRLEIKR
B5: H1H21227N (antibody, V domains shown)
VH: B4 VH
VL: B4 VL
B6: H1H21231N (antibody, V domains shown)
VH: EVQLVESGGGLVQPGGSLRLSCAASGFTFSDHYMDWVRQAPGKGLEWVGRTRNKANSHTTEYTASVTGRFTISRDDSRNSLYLQMNSLKTEDTAVYYCVRAGIIGTLFDYWGQGTLVTVSS
VL: B4 VL with S7F, N31S, Y32F, Y36F, L46F, T50A, T80P, N94S, F95P
B7: H2aM25695N (antibody, mouse IgG2a, V domains shown)
VH: B1 VH with D58N, T73M, S83N, M85V
VL: B1 VL with N32S, T85A, H90Q, N94S, P96Y
notes: mouse IgG2a Fc
B8: H1xH29283P2 (antibody, V domains shown)
VH: QVQLVQSGTEVKKPGSSVKVSCKASGGTFSRYTFSWVRQAPGQGLEWMGGIIPIFGTTNYAQKFQGRVTITTDESTSTVYMELSSLRSEDTAVYYCTRGGRYGWFDPWGQGTLVTVSS
VL: not shown
notes: prefix H1xH not explained for the anti-MSR1 antibodies
B9: H2aM21228N (antibody, mouse IgG2a, V domains shown)
VH: VQLVESGGGLVQPGGSLRLSCAASGFTFSDHYMDWVRQAPGKGLEWVGRTRNKANSHTTEYAASVSGRFTISRDDSKNSLYLQMNSLKTEDTAVYYCTRAGIIGTLFDYWGQGTLVTVSS
VL: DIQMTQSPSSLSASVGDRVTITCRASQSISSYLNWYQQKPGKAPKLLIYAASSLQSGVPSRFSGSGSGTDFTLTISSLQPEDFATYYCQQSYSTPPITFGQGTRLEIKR
notes: mouse IgG2a Fc
B10: H1xH27759P2 (antibody, V domains shown)
VH: EVQLVESGGGFVQPGGSLRLSCAASGFTFSSYAMSWVRQAPGKGLEWVSAISGTGSNTYYADSVKGRFTISRDNSKNTLYLQMNSLRAEDTAVYYCAKDRVTTVTYYFDYWGQGTLVTVSS
VL: not shown
notes: as for B8
B11: H1H27736P-N297Q (antibody, human IgG1, V domains shown)
VH: EVQLVESGGGLVQPGGSLRLSCAASGFTFSSYAMSWVRQAPGKGLEWVSSISGSGDSTFYTDSVKGRFTISRDISKNTLYLQMNSLRAEDTAVYYCAKDRLLWFGDLISPFHYWGQGTLVTVSS
VL: EIVLTQSPGTLSLSPGERATLSCRASQSVSNIYLAWYQQKPAQAPRLLIYGASSRATGIPDRFSVSGSGTDFTLTISRLEPEDFAVYYCQQYGSSPRTFGQGTKVEIKR
notes: human IgG1 Fc with N297Q
B12: H1H27760P2-N297Q (antibody, human IgG1, V domains shown)
VH: EVQLVESGGGLVQPGRSLRLSCAASGFTFDAYAMHWVRQAPGKGLEWVSGISWNSGSIGYADSVKGRFTISRDNAKNSLYLQMNSLREEDTALYYCAKDKILELYYYGMDVWGQGTTVTVSS
VL: not shown
notes: human IgG1 Fc with N297Q; also called H1H27760P-N297Q
B13: H1H27732P-N297Q (antibody, human IgG1, V domains shown)
VH: QLQLQESGPGLVKPSETLSLTCTVSGGSISSSTYYWGWIRQPPGKGLEWIGSFYYSGSTYYNPSLKSRVTISVGTSKNQFSLKLSSVTAADTAVYFCARGGLLGRPFVIWGQGTMVTVSS
VL: DIQMTQSPSSLSASVGDRVTITCRASQGIRNDLGWYQQKPGKAPKRLIYAASSLQSGVPSRFSGSGSGTEFTLTISSLQPEDFATYYCLQHNSYPLTFGGGTKVEIKR
notes: human IgG1 Fc with N297Q
B14: H1H27756P-N297Q (antibody, human IgG1, V domains shown)
VH: QVQLVESGGGVVQPGRSLRLSCAASGFTFSNYDMHWVRQAPGKGLEWMAVISYDGINKYYADSVKGRFTISRDNSKNTLYLQMNSLRAEDTAVYYCAKGTYSWYFDLWGRGTLVTVSS
VL: not shown
notes: human IgG1 Fc with N297Q
B15: H1H21231N-N297Q (antibody, human IgG1, V domains shown)
VH: B6 VH
VL: B4 VL with S7F, N31S, Y32F, Y36F, L46F, T50A, T80P, N94S, F95P
notes: human IgG1 Fc with N297Q
B16: H1H27749P-N297Q (antibody, human IgG1, V domains shown)
VH: QVQLQESGPGLVKPSETLSLTCTVSDGSISSYYWSWIRQPPGRGLEWIGFIYYSGSTSYNPSLKSRVTISVDTSMSQFSLKLRSVTAADTAVYYCARGSPFDYWGPGTLVTVSS
VL: EIVLTQSPGTLSLSPGERATLSCRASQSVSSSYLAWYQQRPGQAPSLLISGASRRATGIPDRFSGSGSGTDFTLTIRRLEPEDFAMYYCQQYGSSPPTFGGGTKVEIKR
notes: human IgG1 Fc with N297Q

target: T1, human MSR1 with a C-terminal Myc tag expressed on HEK293.Myc.hMSR1 cells (human, UniProt P21757 1-451); assay: cell-based or functional assay
T1 sequence (looked up): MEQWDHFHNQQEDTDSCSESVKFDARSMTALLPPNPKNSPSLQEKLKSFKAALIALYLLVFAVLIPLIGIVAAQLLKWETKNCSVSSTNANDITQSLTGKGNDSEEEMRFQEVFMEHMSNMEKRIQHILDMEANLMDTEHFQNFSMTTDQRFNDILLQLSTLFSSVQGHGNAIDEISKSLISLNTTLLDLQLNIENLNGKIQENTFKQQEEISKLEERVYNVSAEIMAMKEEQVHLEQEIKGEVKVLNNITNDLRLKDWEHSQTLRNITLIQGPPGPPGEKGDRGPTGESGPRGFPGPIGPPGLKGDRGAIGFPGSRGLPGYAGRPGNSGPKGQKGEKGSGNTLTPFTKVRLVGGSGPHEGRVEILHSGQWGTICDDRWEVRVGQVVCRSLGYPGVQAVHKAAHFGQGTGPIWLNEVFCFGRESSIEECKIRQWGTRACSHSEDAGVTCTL

Binder	IC50 of inhibition of Dil-Acetylated LDL uptake [nM]	IC50 of inhibition of Dil-Oxidized LDL uptake [nM]	% Inhibition of Dil-Acetylated LDL uptake [%]	% Inhibition of Dil-Oxidized LDL uptake [%]
B1	0.71	4.3		
B2	1.2			
B3	1.8	> 10		
B4	2.4	1.8	65	94
B5	2.1	2	65	89
B6	3.5	3.6	63	78

target: T2, full length human MSR1 with a C-terminal Myc tag on HEK293.Myc.hMSR1 cells (human, UniProt P21757 1-451); assay: ECL cell binding, HEK293.Myc.hMSR1
T2 construct: whole, on cells
T2 sequence (looked up): T1 sequence (looked up)
Method: (§1) All cells were washed once with 1×PBS with Ca²⁺/Mg²⁺ and counted with a Cellometer™ Auto T4 cell counter (Nexcelom Bioscience). Approximately 1.0×10⁴ cells were seeded separately onto 96-well carbon electrode plates [MULTI-ARRAY high bind plate, Meso Scale Diagnostics] and incubated for 1 hour at 37° C. Non-specific binding sites were then blocked by 2% BSA (w/v) in PBS with Ca²⁺/Mg²⁺ for 1 hour at room temperature. THP-1 cells were pre-incubated for 0.5 hours at room temperature in sample dilution buffer with: 1) 1 mg/mL Fc receptor block reagents to block Fc gamma receptors on THP-1 cell surface [whole molecule human IgG (Jackson Immunoresearch, Cat #009-000-003) for wells being tested with anti-MSR1-mFc antibodies or 2) whole molecule mIgG (Jackson Immunoresearch, Cat #015-000-003) for wells being tested with anti-MSR1-hFc antibodies. Antibody binding on HEK293.Myc.hMSR1, HEK293.mfMSR1 and HEK293 cells was tested without Fc receptor block reagents. […] Plates were then washed to remove unbound antibodies an AquaMax2000 plate washer with a cell washing head (MDS Analytical Technologies). […] Plates were washed and developed with Read Buffer (Meso Scale Diagnostics, Cat #R92TD-2) according to manufacturer's recommended procedure and luminescent signals were recorded with a SECTOR Imager 600 (Meso Scale Diagnostics). Luminescence intensity, measured in relative light units (RLU), was recorded to indicate the binding intensity of each antibody at the range of concentrations.

Binder	binding signal ratio to isotype control (11 nM) [fold]
B7	35
B8	26
B9	66
B10	22

target: T3, mouse MSR1 on RAW264.7 cells (mouse, UniProt P30204 1-458); assay: flow cytometry, RAW264.7 cells, 10 ug/mL;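 also: antibodies bound to RAW264.7 cells for 30 min on ice after Fc block with mouse IgG, S/N is MFI relative to unstained cells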
T3 construct: whole, on cells
T3 sequence (looked up): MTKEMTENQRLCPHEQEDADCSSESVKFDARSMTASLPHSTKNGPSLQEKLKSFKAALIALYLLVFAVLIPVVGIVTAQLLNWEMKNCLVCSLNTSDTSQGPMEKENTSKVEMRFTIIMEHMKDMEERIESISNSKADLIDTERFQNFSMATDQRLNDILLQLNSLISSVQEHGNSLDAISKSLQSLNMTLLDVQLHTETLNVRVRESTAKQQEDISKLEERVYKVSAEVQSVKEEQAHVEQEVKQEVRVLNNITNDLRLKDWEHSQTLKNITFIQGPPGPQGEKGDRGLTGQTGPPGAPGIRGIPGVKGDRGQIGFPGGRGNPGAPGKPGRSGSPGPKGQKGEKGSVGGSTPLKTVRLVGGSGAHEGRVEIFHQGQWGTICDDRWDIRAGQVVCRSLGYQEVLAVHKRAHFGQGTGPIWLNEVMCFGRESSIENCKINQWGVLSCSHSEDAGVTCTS
Method: To block binding to Fc receptors, RAW264.7 cells were incubated for 30 minutes at 4° C. with 500 μg/mL mouse IgG (Jackson ImmunoResearch, Cat #015-000-003) diluted in staining buffer, while B16F10.9 cells remained in staining buffer. Following Fc receptor blocking, 10 μg/mL of anti-MSR1 antibodies or an isotype control antibody were added to the cells and were subsequently incubated for 30 minutes on ice. […] The signal to noise (S/N) was determined by calculating the ratio of the anti-MSR1 antibodies or the control antibodies MFI to the unstained sample MFI (Table 16).

Binder	MFI	S/N
B11	3550	
B12	3430	
B13	3420	
B14	4570	
B15	3580	1
B16	3790	

target: T4, full length monkey MSR1 on HEK293.mfMSR1 cells (Macaca fascicularis, UniProt A0A2K5UWE2 1-451); assay: ECL cell binding, HEK293.mfMSR1
T4 construct: whole, on cells
T4 sequence: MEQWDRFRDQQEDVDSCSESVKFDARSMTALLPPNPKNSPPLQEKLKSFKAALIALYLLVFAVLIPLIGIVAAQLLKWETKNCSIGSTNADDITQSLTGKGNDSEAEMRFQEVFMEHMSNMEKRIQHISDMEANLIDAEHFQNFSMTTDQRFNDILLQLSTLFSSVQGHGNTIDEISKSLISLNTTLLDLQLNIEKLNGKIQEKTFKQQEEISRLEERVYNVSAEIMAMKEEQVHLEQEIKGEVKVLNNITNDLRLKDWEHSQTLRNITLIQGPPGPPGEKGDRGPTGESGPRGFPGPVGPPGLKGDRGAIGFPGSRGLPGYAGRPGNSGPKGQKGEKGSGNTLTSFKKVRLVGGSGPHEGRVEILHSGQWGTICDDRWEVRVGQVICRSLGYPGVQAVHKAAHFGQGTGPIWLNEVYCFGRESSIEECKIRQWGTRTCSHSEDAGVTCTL
Method: as §1

Binder	binding signal ratio to isotype control (11 nM) [fold]
B7	45
B8	24
B9	60
B10	21
